Consider two molecules from US20030120051A1 (SUGEN, published 2003).

One experiment has as its target human c-Src (human, UniProt P12931 2-536). Nature of the experiment: immunoprecipitation and immunoblotting of endogenous proteins in IMR-32 cells. On the technique in general: In western blotting, separated proteins are transferred to a membrane and probed.
The target of experiment [1] is endogenous c-Src of rat GH3 cells (rat, UniProt Q9WUD9 2-536, limits assumed). Nature of the experiment: immunoprecipitation and immunoblotting of endogenous proteins in GH3 cells.

B1: human CASPR/p190 (receptor)
chain: WGYYGCDEELVGPLYARSLGASSYYSLLTAPRFARLHGISGWSPRIGDPNPWLQIDLMKKHRIRAVATQGSFNSWDWVTRYMLLYGDRVDSWTPFYQRGHNSTFFGNVNESAVVRHDLHFHFTARYIRIVPLAWNPRGKIGLRLGLYGCPYKADILYFDGDDAISYRFPRGVSRSLWDVFAFSFKTEEKDGLLLHAEGAQGDYVTLELEGAHLLLHMSLGSSPIQPRPGHTTVSAGGVLNDQHWHYVRVDRFGRDVNFTLDGYVQRFILNGDFERLNLDTEMFIGGLVGAARKNLAYRHNFRGCIENVIFNRVNIADLAVRRHSRITFEGKVAFRCLDPVPHPINFGGPHNFVQVPGFPRRGRLAVSFRFRTWDLTGLLLFSRLGDGLGHVELTLSEGQVNVSIAQSGRKKLQFAAGYRLNDGFWHEVNFVAQENHAVISIDDVEGAEVRVSYPLLIRTGTSYFFGGCPKPASRWDCHSNQTAFHGCMELLKVDGQLVNLTLVEGRRLGFYAEVLFDTCGITDRCSPNMCEHDGRCYQSWDDFICYCELTGYKGETCHTPLYKESCEAYRLSGKTSGNFTIDPDGSGPLKPFVVYCDIRENRAWTVVRHDRLWTTRVTGSSMERPFLGAIQYWNASWEEVSALANASQHCEQWIEFSCYNSRLLNTAGGYPYSFWIGRNEEQHFYWGGSQPGIQRCACGLDRSCVDPALYCNCDADQPQWRTDKGLLTFVDHLPVTQVVIGDTNRSTSEAQFFLRPLRCYGDRNSWNTISFHTGAALRFPPIRANHSLDVSFYFRTSAPSGVFLENMGGPYCQWRRPYVRVELNTSRDVVFAFDVGNGDENLTVHSDDFEFNDDEWHLVRAEINVKQARLRVDHRPWVLRPMPLQTYIWMEYDQPLYVGSAELKRRPFVGCLRAMRLNGVTLNLEGRANASEGTSPNCTGHCAHPRLPCFHGGRCVERYSYYTCDCDLTAFDGPYCNHDIGGFFEPGTWMRYNLQSALRSAAREFSHMLSRPVPGYEPGYIPGYDTPGYVPGYHGPGYRLPDYPRPGRPVPGYRGPVYNVTGEEVSFSFSTSSAPAVLLYVSSFVRDYMAVLIKDDGTLQLRYQLGTSPYVYQLTTRPVTDGQPHSINITRVYRNLFIQVDYFPLTEQKFSLLVDSQLDSPKALYLGRVMETGVIDPEIQRYNTPGFSGCLSGVRFNNVAPLKTHFRTPRPMTAELAEALRVQGELSESNCGAMPRLVSEVPPELDPWYLPPDFPYYHDEGWVAILLGFLVAFLLLGLVGMLVLFYLQNHRYKGSYHTNEPKAAHEYHPGSKPPLPTSGPAQVPTPTAAPNQAPASAPAPAPTPAPAPGPRDQNLPQILEESRSE
notes: Endogenous in IMR-32 neuroblastoma cells
Take B1: in the experiment with human c-Src, the binding result was “no binding”.

B2: rat CASPR/p190 (receptor)
chain: WGYYGCNEELVGPLYARSLGASSYYGLFTTARFARLHGISGWSPRIGDPNPWLQIDLMKKHRIRAVATQGAFNSWDWVTRYMLLYGDRVDSWTPFYQQGHNATFFGNVNDSAVVRHDLHYHFTARYIRIVPLAWNPRGKIGLRLGIYGCPYTSNILYFDGDDAISYRFQRGASQSLWDVFAFSFKTEEKDGLLLHTEGSQGDYVTLELQGAHLLLHMSLGSSPIQPRPGHTTVSAGGVLNDLSWHYVRVDRYGREANLTLDGYVHRFVLNGDFERLNLENEIFIGGLVGAARKNLAYRHNFRGCIENVIYNRINIAEMAVQRHSRITFEGNVAFRCLDPVPHPINFGGPHNFVQVPGFPRRGRLAVSFRFRTWDLTGLLLFSRLGDGLGHVELMLSEGQVNVSIAQTGRKKLQFAAGYRLNDGFWHEVNFVAQENHAVISIDDVEGAEVRVSYPLLIRTGTSYFFGGCPKPASRWGCHSNQTAFHGCMELLKVDGQLVNLTLVEFRKLGYFAEVLFDTCGITDRCSPNMCEHDGRCYQSWDDFICYCELTGYKGVTCHEPLYKESCEAYRLSGKYSGNYTIDPDGSGPLKPFVVYCDIRENRAWTVVRHDRLWTTRVTGSSMDRPFLGAIQYWNASWEEVSALANASQHCEQWIEFSCYNSRLLNTAGGYPYSFWIGRNEEQHFYWGGSQPGIQRCACGLDQSCIDPALHCNCDADQPQWRTDKGLLTFVDHLPVTQVVIGDTNRSSSEAQFFLRPLRCYGDRNSWNTISFRTGAALRFPPIRANHSLDVSFYFRTSAPSGVFLENMGGPFCQWRRPYVRVELNTSRDVVFAFDIGNGDENLTVHSDDFEFNDDEWHLVRAEINVKQARLRVDHRPWVLRPMPLQTYIWLEYDQPLYVGSAELKRRPFVGCLRAMRLNGVTLNLEGRANASEGTFPNCTGHCTHPRFPCFHGGRCVERYSYYTCDCDLTAFDGPYCNHDIGGFFETGTWMRYNLQSALRSAAQEFSHMLSRPVPGYEPGYIPGYDTPGYVPGYHGPGYRLPDYPRPGRPVPGYRGPVYNVTGEEVSFSFSTSSAPAVLLYVSSFVRDYMAVLIKEDGTLQLRYQLGTSPYVYQLTTRPVTDGQPHSVNITRVYRNLFIQVDYFPLTEQKFSLLVDSQLDSPKALYLGRVMETGVIDPEIQRYNTPGFSGCLSGVRFNNVAPLKTHFRTPRPMTAELAEAMRVQGELSESNCGAMPRLVSEVPPELDPWYLPPDFPYYHDDGWIAILLGFLVAFLLLGLVGMLVLFYLQNHRYKGSYHTNEPKATHDSHPGGKAPLPPSGPAQAPAPTPAPTQVPTPAPAPASGPGPRDQNLPQILEESRSE
notes: Endogenous in GH3 cells and rat brain, or expressed from pCM190R in COS7 cells; read from membrane lysates; no cleavage site stated; also called Contactin ASsociated PRotein; 190 kDa protein
Regarding B2, the binding result in experiment [1] is given as “no binding”.
